Test results taken from US20060063727, “Tr4/tr2 response elements” (published 2006).

What was measured:
[1] = biological target: T1, TR4 orphan receptor (NR2C2) (Homo sapiens) (UniProt P49116); assay: competition; conditions: competitive EMSA
T1 sequence: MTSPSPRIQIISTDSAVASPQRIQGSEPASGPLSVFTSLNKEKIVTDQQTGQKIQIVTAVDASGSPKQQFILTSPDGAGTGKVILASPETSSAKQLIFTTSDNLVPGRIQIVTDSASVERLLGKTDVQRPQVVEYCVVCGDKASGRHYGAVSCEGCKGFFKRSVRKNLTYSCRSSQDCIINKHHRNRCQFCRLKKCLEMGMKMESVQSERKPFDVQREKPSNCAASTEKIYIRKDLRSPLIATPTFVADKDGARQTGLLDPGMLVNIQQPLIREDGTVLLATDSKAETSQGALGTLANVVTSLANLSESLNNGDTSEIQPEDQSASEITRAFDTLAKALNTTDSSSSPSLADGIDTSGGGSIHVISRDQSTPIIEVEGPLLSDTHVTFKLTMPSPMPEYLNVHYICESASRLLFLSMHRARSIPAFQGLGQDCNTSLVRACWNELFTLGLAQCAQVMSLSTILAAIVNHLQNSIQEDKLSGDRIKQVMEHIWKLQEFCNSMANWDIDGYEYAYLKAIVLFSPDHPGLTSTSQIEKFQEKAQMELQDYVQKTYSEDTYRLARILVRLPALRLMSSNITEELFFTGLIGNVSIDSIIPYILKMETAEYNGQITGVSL

[2] = biological target: T2, TR2 orphan receptor (TR2-11, NR2C1) (Homo sapiens, UniProt P13056 SEQ:1-603); assay: EMSA; Scatchard; 25 mM Tris pH 8.0, 50 mM KCl, poly(dI.dC); conditions: tags: none stated, pSG5-hTR2-11, TNT rabbit reticulocyte lysate; label: 32P
T2 chain: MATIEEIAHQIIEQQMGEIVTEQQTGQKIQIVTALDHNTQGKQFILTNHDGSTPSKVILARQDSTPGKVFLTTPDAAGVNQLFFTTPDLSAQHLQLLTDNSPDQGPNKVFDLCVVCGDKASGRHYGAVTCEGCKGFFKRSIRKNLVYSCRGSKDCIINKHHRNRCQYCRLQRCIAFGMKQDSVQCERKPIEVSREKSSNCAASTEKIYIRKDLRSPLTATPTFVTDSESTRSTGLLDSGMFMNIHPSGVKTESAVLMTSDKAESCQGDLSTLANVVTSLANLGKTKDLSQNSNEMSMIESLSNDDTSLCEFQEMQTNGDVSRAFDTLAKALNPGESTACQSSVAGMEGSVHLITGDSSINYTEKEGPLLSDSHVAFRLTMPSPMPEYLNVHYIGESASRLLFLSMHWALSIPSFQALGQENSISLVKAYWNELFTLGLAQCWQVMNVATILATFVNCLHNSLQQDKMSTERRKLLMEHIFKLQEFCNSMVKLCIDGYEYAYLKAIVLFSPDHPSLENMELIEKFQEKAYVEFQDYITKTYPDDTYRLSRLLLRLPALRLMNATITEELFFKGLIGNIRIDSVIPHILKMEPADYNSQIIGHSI
Experimental: Electrophoretic mobility shift assay analysis was performed as previously described (Jiang, C. K. et al. (1991) J Invest Dermatol 97, 969-973). The oligonucleotides were 5′ end labeled with γ-³²P ATP (specific activity=6000 Ci/mmole) (New England Nuclear) by T4 polynucleotide kinase. The specific activity reached 2-8×10⁸ cpm/μg. Labeled oligonucleotides (0.1 ng) were incubated with in vitro translated proteins, in the presence or absence of unlabeled oligonucleotide competitor or rabbit antiserum against TR2 (Cooney, A. J. et al. (1993) J Biol Chem 268, 4152-4160), for 15 min at room temperature. The binding buffer contained 25 mM Tris-HCl (pH 8.0), 10% glycerol, 50 mM KCl, 2 mM EDTA, 0.05% TritonX-100, 5 mM DTT, 1% β-mercaptoethanol, 5 ng/ml bovine serum albumin, 1.5 units/ml aprotinin, and 1 μg poly(dI.dC) (Pharmacia). […] The radioactive gels were analyzed by PhosphorImager (Molecular Dynamics). […]
To clarify the potential mechanism for the differential regulation of PPARα signal pathway by TR2 and TR4, the Kds (equilibrium dissociation constants) for TR2 and TR4 binding to PPRE were calculated using Scatchard analysis. […] The Kd values calculated here were consistent with the range of Kd values for nuclear receptors and their hormone response elements.

[3] = biological target: T2, TR2 orphan receptor (TR2-11, NR2C1); assay: EMSA; competed by excess unlabeled oligo; supershift with anti-TR2 G204; conditions: tags: none stated, pSG5-hTR2-11, TNT rabbit reticulocyte lysate; label: 32P
Experimental: EMSA analysis was performed as described previously (Lee, H. J., and Chang, C. (1995) J. Biol. Chem. 270, 5434-5440). […] For competition reactions, unlabeled HPV-16 DR4RE oligonucleotides were mixed with labeled probe prior to its addition to the reaction. Antibody shift analysis involved the addition of 1 μl of the monoclonal anti-TR2 orphan receptor antibody, G204, to the reaction for 15 min., at room temperature, prior to gel loading.
The site consists of two consensus A(G/T)(G/T)TCA half sites with a spacing of 4 nucleotides (ATGTCAccctAGTTCA). To determine whether TR2 was able to bind the HPV-16 DR4RE, gel shift analysis was performed. […] Also in FIG. 3A, a mock in vitro transcription/translation reaction was used in lane 3, and lane 4 contains ³²P-labeled HPV-16 DR4RE alone. To further confirm the binding specificity of TR2 for the HPV-16 DR4RE, a TR2-specific monoclonal antibody was added, resulting in an upward shift of the labeled complex (FIG. 3B).

CRBPII (DR1) showed an IC50 ([1]; best of natural elements) of 0.023 ng.

DR4 synthetic was tested, and the IC50 ([1]; range end assigned by order, weakest synthetic DR) was 0.24 ng.

Work on DR6 synthetic yielded an IC50 ([1]; range end assigned by order DR6>DR5>DR1>DR3>DR2>DR4) of 0.08 ng.

For ERE (palindrome), the IC50 ([1]; weakest natural element, bound poorly, range end assigned by order) was 85 ng.

B1: PPRE (rat acyl-CoA oxidase) (dsDNA)
DNA 1: GTCGACAGGGGACCAGGACAAAGGTCACGTTCGGGAGTCGAC
DNA 2: GTCGACTCCCGAACGTGACCTTTGTCCTGGTCCCCTGTCGAC
With B1 the Kd [2] was 1.23 nM.

B2: HPV-16 DR4RE (dsDNA)
DNA 1: ATGTCACCCTAGTTCA
DNA 2: TGAACTAGGGTGACAT
B2: binds [3].
